± gives the uncertainty stated by the source.
Experiment: abundance fitness (aPCA) (normalised: wild type 0, dead -1); higher = more abundant; growth selection in yeast, the domain comes from the species named
Conditions: Homo sapiens
With “SAFB-like transcription modulator D64F, Q9NWH9” the abundance fitness was -0.144 ± 0.048.
In the case of “SAFB-like transcription modulator K21P, Q9NWH9”, the abundance fitness is reported as -0.312 ± 0.057.
“BAG family molecular chaperone regulator 3 K29L, O95817” showed an abundance fitness of -0.376 ± 0.091.
With “SAFB-like transcription modulator K31C, Q9NWH9” the abundance fitness was -0.223 ± 0.06.
For “BAG family molecular chaperone regulator 3 N16L, O95817”, the abundance fitness was 0.33 ± 0.1.
For “SAFB-like transcription modulator V44A, Q9NWH9”, the abundance fitness was 0.064 ± 0.039.
Work on “SAFB-like transcription modulator R26Q, Q9NWH9” yielded an abundance fitness of -0.502 ± 0.17.
“BAG family molecular chaperone regulator 3 K29N, O95817” gave an abundance fitness of -0.75 ± 0.43.
In the case of “SAFB-like transcription modulator R26G, Q9NWH9”, the abundance fitness is reported as -0.19 ± 0.08.
In the case of “SAFB-like transcription modulator K35E, Q9NWH9”, the abundance fitness is reported as -0.013 ± 0.083.
In the case of “SAFB-like transcription modulator E57R, Q9NWH9”, the abundance fitness is reported as 0.034 ± 0.06.
“SAFB-like transcription modulator L48M, Q9NWH9” showed an abundance fitness of -0.075 ± 0.04.
For “SAFB-like transcription modulator P63R, Q9NWH9”, the abundance fitness was -0.478 ± 0.053.
Work on “BAG family molecular chaperone regulator 3 P21Y, O95817” yielded an abundance fitness of -0.152 ± 0.21.
Work on “SAFB-like transcription modulator G61T, Q9NWH9” yielded an abundance fitness of -0.296 ± 0.046.
In the case of “SAFB-like transcription modulator T23M, Q9NWH9”, the abundance fitness is reported as -0.06 ± 0.038.
For “SAFB-like transcription modulator L52G, Q9NWH9”, the abundance fitness was -0.611 ± 0.048.
For “SAFB-like transcription modulator L52Q, Q9NWH9”, the abundance fitness was -0.927 ± 0.45.
In the case of “SAFB-like transcription modulator L34T, Q9NWH9”, the abundance fitness is reported as -0.831 ± 0.067.
Substance “BAG family molecular chaperone regulator 3 F39L, O95817” has an abundance fitness of -0.528 ± 0.14.
For “SAFB-like transcription modulator E67P, Q9NWH9”, the abundance fitness was -0.155 ± 0.089.
With “BAG family molecular chaperone regulator 3 S14L, O95817” the abundance fitness was 0.091 ± 0.11.
“SAFB-like transcription modulator S32P, Q9NWH9” gave an abundance fitness of -0.768 ± 0.058.
Substance “BAG family molecular chaperone regulator 3 P37D, O95817” has an abundance fitness of 0.447 ± 0.16.
“BAG family molecular chaperone regulator 3 W36T, O95817” gave an abundance fitness of 1.25 ± 0.32.
For “SAFB-like transcription modulator T23Q, Q9NWH9”, the abundance fitness was -0.034 ± 0.046.
“SAFB-like transcription modulator I41Y, Q9NWH9” gave an abundance fitness of -0.172 ± 0.11.
With “BAG family molecular chaperone regulator 3 N50W, O95817” the abundance fitness was 0.441 ± 0.15.
For “BAG family molecular chaperone regulator 3 P21N, O95817”, the abundance fitness was -0.081 ± 0.21.
In the case of “BAG family molecular chaperone regulator 3 V12H, O95817”, the abundance fitness is reported as -0.48 ± 0.33.
For “SAFB-like transcription modulator G60I, Q9NWH9”, the abundance fitness was -0.792 ± 0.08.
With “BAG family molecular chaperone regulator 3 G35K, O95817” the abundance fitness was 0.766 ± 0.078.
Substance “SAFB-like transcription modulator R51A, Q9NWH9” has an abundance fitness of -0.437 ± 0.077.
Work on “BAG family molecular chaperone regulator 3 S44R, O95817” yielded an abundance fitness of -0.335 ± 0.08.
With “BAG family molecular chaperone regulator 3 V40F, O95817” the abundance fitness was -0.533 ± 0.4.
Work on “SAFB-like transcription modulator D24S, Q9NWH9” yielded an abundance fitness of -0.149 ± 0.032.
In the case of “BAG family molecular chaperone regulator 3 I30V, O95817”, the abundance fitness is reported as 0.207 ± 0.092.
“SAFB-like transcription modulator I41V, Q9NWH9” gave an abundance fitness of -0.067 ± 0.063.
For “SAFB-like transcription modulator I49W, Q9NWH9”, the abundance fitness was -0.449 ± 0.041.
Work on “BAG family molecular chaperone regulator 3 T34R, O95817” yielded an abundance fitness of -0.391 ± 0.12.
For “BAG family molecular chaperone regulator 3 S44H, O95817”, the abundance fitness was -0.481 ± 0.37.
“BAG family molecular chaperone regulator 3 P23H, O95817” showed an abundance fitness of 0.173 ± 0.23.
For “SAFB-like transcription modulator D62Y, Q9NWH9”, the abundance fitness was -0.46 ± 0.064.
Substance “SAFB-like transcription modulator T42E, Q9NWH9” has an abundance fitness of -0.107 ± 0.12.
Work on “SAFB-like transcription modulator L34V, Q9NWH9” yielded an abundance fitness of -0.614 ± 0.068.
In the case of “SAFB-like transcription modulator I41H, Q9NWH9”, the abundance fitness is reported as 0.157 ± 0.093.
Substance “BAG family molecular chaperone regulator 3 E57N, O95817” has an abundance fitness of 0.759 ± 0.22.
For “SAFB-like transcription modulator G61V, Q9NWH9”, the abundance fitness was -0.39 ± 0.046.
In the case of “SAFB-like transcription modulator K20I, Q9NWH9”, the abundance fitness is reported as 0.049 ± 0.11.
Substance “BAG family molecular chaperone regulator 3 F39H, O95817” has an abundance fitness of -0.615 ± 0.39.
For “SAFB-like transcription modulator V27N, Q9NWH9”, the abundance fitness was -0.453 ± 0.16.
In the case of “BAG family molecular chaperone regulator 3 G17Q, O95817”, the abundance fitness is reported as 0.968 ± 0.098.
With “BAG family molecular chaperone regulator 3 G17E, O95817” the abundance fitness was 0.915 ± 0.077.
With “BAG family molecular chaperone regulator 3 P32R, O95817” the abundance fitness was 0.039 ± 0.074.
“SAFB-like transcription modulator D24C, Q9NWH9” showed an abundance fitness of -0.226 ± 0.036.
For “BAG family molecular chaperone regulator 3 F38S, O95817”, the abundance fitness was -0.243 ± 0.069.
In the case of “SAFB-like transcription modulator I56R, Q9NWH9”, the abundance fitness is reported as -0.485 ± 0.07.
Substance “BAG family molecular chaperone regulator 3 S56K, O95817” has an abundance fitness of -0.136 ± 0.29.
For “SAFB-like transcription modulator E58S, Q9NWH9”, the abundance fitness was 0.024 ± 0.053.
“SAFB-like transcription modulator G60Y, Q9NWH9” gave an abundance fitness of -0.591 ± 0.07.
With “SAFB-like transcription modulator K35D, Q9NWH9” the abundance fitness was -0.046 ± 0.097.
“SAFB-like transcription modulator T23L, Q9NWH9” showed an abundance fitness of -0.184 ± 0.031.
“SAFB-like transcription modulator K53E, Q9NWH9” showed an abundance fitness of -0.351 ± 0.099.
Substance “BAG family molecular chaperone regulator 3 L22H, O95817” has an abundance fitness of -0.796 ± 0.37.
“SAFB-like transcription modulator K35Q, Q9NWH9” gave an abundance fitness of 0.052 ± 0.053.
Work on “SAFB-like transcription modulator K53T, Q9NWH9” yielded an abundance fitness of -0.03 ± 0.084.
For “BAG family molecular chaperone regulator 3 Q11Y, O95817”, the abundance fitness was 0.795 ± 0.15.
In the case of “SAFB-like transcription modulator L48T, Q9NWH9”, the abundance fitness is reported as -0.538 ± 0.043.
“BAG family molecular chaperone regulator 3 E27V, O95817” gave an abundance fitness of -0.96 ± 0.25.
Substance “BAG family molecular chaperone regulator 3 P21K, O95817” has an abundance fitness of 0.439 ± 0.059.
With “BAG family molecular chaperone regulator 3 P52E, O95817” the abundance fitness was -0.948 ± 0.38.
“BAG family molecular chaperone regulator 3 T34S, O95817” gave an abundance fitness of 0.579 ± 0.089.
With “SAFB-like transcription modulator D24I, Q9NWH9” the abundance fitness was -0.693 ± 0.035.
“SAFB-like transcription modulator G60K, Q9NWH9” gave an abundance fitness of -0.162 ± 0.052.
In the case of “SAFB-like transcription modulator D62N, Q9NWH9”, the abundance fitness is reported as -0.089 ± 0.05.
“SAFB-like transcription modulator E58D, Q9NWH9” gave an abundance fitness of -0.444 ± 0.15.
Substance “BAG family molecular chaperone regulator 3 D18I, O95817” has an abundance fitness of -0.205 ± 0.27.
For “SAFB-like transcription modulator E59P, Q9NWH9”, the abundance fitness was -0.768 ± 0.05.
Work on “BAG family molecular chaperone regulator 3 R45C, O95817” yielded an abundance fitness of -0.165 ± 0.17.
“SAFB-like transcription modulator D40I, Q9NWH9” showed an abundance fitness of -0.357 ± 0.092.
Substance “BAG family molecular chaperone regulator 3 P52T, O95817” has an abundance fitness of -1.12 ± 0.39.
Work on “SAFB-like transcription modulator L30Q, Q9NWH9” yielded an abundance fitness of -0.959 ± 0.17.
Work on “BAG family molecular chaperone regulator 3 P32D, O95817” yielded an abundance fitness of -0.64 ± 0.39.
“SAFB-like transcription modulator R51M, Q9NWH9” showed an abundance fitness of -0.506 ± 0.051.
“SAFB-like transcription modulator K31Q, Q9NWH9” gave an abundance fitness of -0.069 ± 0.075.
Substance “BAG family molecular chaperone regulator 3 L22F, O95817” has an abundance fitness of -0.069 ± 0.18.
With “SAFB-like transcription modulator N38H, Q9NWH9” the abundance fitness was -0.492 ± 0.2.
For “BAG family molecular chaperone regulator 3 D51G, O95817”, the abundance fitness was -0.62 ± 0.19.
With “BAG family molecular chaperone regulator 3 D18K, O95817” the abundance fitness was 0.22 ± 0.18.
Substance “SAFB-like transcription modulator L52E, Q9NWH9” has an abundance fitness of -0.456 ± 0.15.
In the case of “SAFB-like transcription modulator D62P, Q9NWH9”, the abundance fitness is reported as -0.474 ± 0.076.
“SAFB-like transcription modulator T46Y, Q9NWH9” showed an abundance fitness of -0.097 ± 0.088.
In the case of “BAG family molecular chaperone regulator 3 G15L, O95817”, the abundance fitness is reported as 0.766 ± 0.074.
For “SAFB-like transcription modulator I41C, Q9NWH9”, the abundance fitness was -0.08 ± 0.15.
For “BAG family molecular chaperone regulator 3 N50Y, O95817”, the abundance fitness was 0.235 ± 0.16.
“BAG family molecular chaperone regulator 3 D18P, O95817” gave an abundance fitness of 0.065 ± 0.092.
“BAG family molecular chaperone regulator 3 Q33P, O95817” gave an abundance fitness of -0.591 ± 0.3.
“SAFB-like transcription modulator T46Q, Q9NWH9” showed an abundance fitness of -0.137 ± 0.074.
